Measurements reported in IntAct's records for PubMed 19536132.

B1: Conserved oligomeric Golgi complex subunit 4 (Homo sapiens), Q9H9E3 (parent)
chain: MADLDSPPKLSGVQQPSEGVGGGRCSEISAELIRSLTELQELEAVYERLCGEEKVVERELDALLEQQNTIESKMVTLHRMGPNLQLIEGDAKQLAGMITFTCNLAENVSSKVRQLDLAKNRLYQAIQRADDILDLKFCMDGVQTALRSEDYEQAAAHTHRYLCLDKSVIELSRQGKEGSMIDANLKLLQEAEQRLKAIVAEKFAIATKEGDLPQVERFFKIFPLLGLHEEGLRKFSEYLCKQVASKAEENLLMVLGTDMSDRRAAVIFADTLTLLFEGIARIVETHQPIVETYYGPGRLYTLIKYLQVECDRQVEKVVDKFIKQRDYHQQFRHVQNNLMRNSTTEKIEPRELDPILTEVTLMNARSELYLRFLKKRISSDFEVGDSMASEEVKQEHQKCLDKLLNNCLLSCTMQELIGLYVTMEEYFMRETVNKAVALDTYEKGQLTSSMVDDVFYIVKKCIGRALSSSSIDCLCAMINLATTELESDFRDVLCNKLRMGFPATTFQDIQRGVTSAVNIMHSSLQQGKFDTKGIESTDEAKMSFLVTLNNVEVCSENISTLKKTLESDCTKLFSQGIGGEQAQAKFDSCLSDLAAVSNKFRDLLQEGLTELNSTAIKPQVQPWINSFFSVSHNIEEEEFNDYEANDPWVQQFILNLEQQMAEFKASLSPVIYDSLTGLMTSLVAVELEKVVLKSTFNRLGGLQFDKELRSLIAYLTTVTTWTIRDKFARLSQMATILNLERVTEILDYWGPNSGPLTWRLTPAEVRQVLALRIDFRSEDIKRLRL

Variants of: B1
Details: with scfd1_human SCFD1, Q8WVM8
Sequence of scfd1_human SCFD1, Q8WVM8 (Q8WVM8 whole entry, looked up): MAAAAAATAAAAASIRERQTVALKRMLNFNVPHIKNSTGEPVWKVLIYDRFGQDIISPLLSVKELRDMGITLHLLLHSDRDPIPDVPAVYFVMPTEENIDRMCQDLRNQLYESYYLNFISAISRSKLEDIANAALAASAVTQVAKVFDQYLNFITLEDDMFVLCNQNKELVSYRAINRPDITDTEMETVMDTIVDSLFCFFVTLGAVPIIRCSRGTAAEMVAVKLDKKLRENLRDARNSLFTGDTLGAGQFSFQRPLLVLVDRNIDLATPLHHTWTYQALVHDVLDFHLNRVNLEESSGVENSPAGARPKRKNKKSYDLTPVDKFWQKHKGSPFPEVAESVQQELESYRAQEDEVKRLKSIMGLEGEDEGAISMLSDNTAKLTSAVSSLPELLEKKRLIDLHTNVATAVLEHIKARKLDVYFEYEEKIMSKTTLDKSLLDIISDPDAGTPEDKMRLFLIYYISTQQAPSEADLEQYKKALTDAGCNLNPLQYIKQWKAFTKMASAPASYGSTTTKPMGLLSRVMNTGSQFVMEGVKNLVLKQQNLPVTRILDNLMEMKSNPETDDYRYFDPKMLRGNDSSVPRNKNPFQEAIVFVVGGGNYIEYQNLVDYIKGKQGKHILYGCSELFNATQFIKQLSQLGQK

Row | Variant | effect of a mutation on the interaction
1 | E71A | disrupting interaction
2 | E53A | disrupting interaction

Variants of: B1
Details: with scfd1_human SCFD1, Q8WVM8
Remark: another data set of the same source

Row | Variant | effect of a mutation on the interaction
3 | E53A | decreasing interaction
